Data on three molecules can be found in patent US20170246212A1, “METHODS TO UPREGULATE AND SUPPRESS AN EXPRESSION OF IMMUNOMODULATORY CELLS” (National Health Research Institutes, priority 2014, published 2017).

Assay [1] relates to PD-L1 surface expression on monocytes. In words: PD-L1 surface expression on human monocytes from PBLs, flow cytometry. It counts as cell-based. The conditions noted are these: for IL-25-mediated induction of PD-L1 in human primary monocytes: inhibitor pretreatment (WP1066 2.5 μM; SP600125 25 μM; PD98059 20 μM; LY294002 10 μM; Akt inhibitor III 10 μM), then 100 ng/ml rhIL-25 for 18 hours. As for the experimental part:
FIG. 9. IL-25-mediated PD-L1 expression in human monocytes and hMSCs is mediated through JNK and STAT3 with STAT3 involved in transcriptional control of PD-L1. (A) Human PBLs were pretreated with inhibitors of STAT3 (WP1066; 2.5 μM), JNK (SP600125; 25 μM), or MEK1 (PD98059; 20 μM) prior to 100 ng/ml rhIL-25 for 18 hours, with subsequent flow cytometric analysis for PD-L1 surface expression on monocytes, gated using FSC and SSC. Filled histograms represent isotype control. Unfilled histograms represent PD-L1 antibody staining. Pooled data (3 donors) provided in (B) with bars representing MFI. hMSCs were treated with inhibitors of (C) STAT3 (WP1066; 2.5 μM) and (D) JNK (SP600125; 25 μM) for 6 hours, and subsequently assessed by flow cytometric analysis for PD-L1 surface expression. Pooled data (all 3 donors) for each respective inhibitor provided (left charts) with bars representing MFI. (D) Putative GAS elements (STAT-binding sites) in the proximal promoter region of human PD-L1 gene; 700 bp region upstream from the transcription start site), as determined with TFSearch web-based software. (E) Binding of STAT3 or IgG (negative control) in hMSCs was analyzed by chromatin immunoprecipitation (ChIP) with promoter-specific primers for region 1 and region 2. The input samples (positive control) represent 1% starting chromatin. (F) Schematic of model of hMSC-mediated suppression of Th17 responses involving IL-25/STAT3/PD-L1 axis.
FIG. 10. Involvement of signal pathways for IL-25-induced expression of PD-L1 in human peripheral blood monocytes. (A) Pooled data (3 donors) of PD-L1 expression (shown as MFI) after MEK inhibition. (B) Human peripheral blood monocytes were pretreated with inhibitors of PI3K (LY294002; 10 μM) or Akt (Akt inhibitor III; 10 μM), followed by 100 ng/ml IL-25 stimulation. After IL-25 treatment for 18 hours, the expression of PD-L1 was assessed by cell surface staining. Pooled data (3 donors) provided in (C) of PD-L1 expression (shown as MFI). A.U., arbitrary units. […]

Assay [2] relates to PD-L1 surface expression on hMSCs. In words: PD-L1 surface expression on hMSCs, flow cytometry. It is filed as cell-based, human. The protocol:
FIG. 7. IL-25 induces PD-L1 surface expression on hMSCs and human monocytes. (A) PD-L1 in siCtrl MSCs (left panel) and siPD-L1 MSCs (right panel) was analyzed by surface staining. (B) Freshly isolated human PBLs were co-cultured without (left panels) or with siCtrl MSCs (middle panels) or siPD-L1 MSCs (right panels) for 3 days, followed by PMA/ionomycin stimulation for 6 hours. IL-17A production in CD3^+ T cells was assessed by intracellular staining. Representative data shown with numbers in the top right quadrants representing the percentages of IL-17A-producing CD3^+ T cells. Pooled data from PBLs (n=4) and 2 hMSC donors (donors A & B) are provided in (C). Folds of reversed phenotypes of silL-25 and siPD-L1 are provided in (D). (E) PD-L1 expression on siCtrl hMSCs (left panel) and silL-25 hMSCs (right panel) was assessed by cell surface staining Filled histograms represent isotype control. […] Pooled data provided in (F) of PD-L1 expression (indicated by fold-change in mean fluorescence intensity; MFI) on silL-25-hMSCs and siPD-L1-hMSCs (all 3 donors). […] (G) hMSCs were treated with indicated doses of rhIL-25 for 18 hours and assessed for cell surface PD-L1 expression by cell surface staining. […] (H) Human PBLs were treated with indicated doses of rhIL-25 for 18 hours, and assessed for cell surface PD-L1 expression on monocytes, gated using FSC and SSC, by flow cytometric analysis. […]

Assay [3] has as its system IL-17A production in CD3+ T cells. As to the kind of experiment: IL-17A production in CD4 T cells treated with rhIL-25, intracellular staining. It is filed as cell-based, human. The settings on record: rhIL-25 alone for 18 hours, then PMA/ionomycin 6 hours. The protocol:
FIG. 6. […] (A) Human CD4 T cells were treated with indicated doses of recombinant human IL-25 (rhIL-25) for 18 hours, followed by PMA/ionomycin stimulation for 6 hours. IL-17A production in CD3^+ T cells was assessed by intracellular staining. Numbers in the top right quadrants represent the percentages of IL-17A-producing CD3^+ T cells; (B) pooled data of 5 PBL donors. (C) Human CD4 T cells (n=4) were co-cultured without or with hMSCs (2 donors: B & C) in the absence or presence of transwell barriers. Pooled data from healthy donors are provided in (D). Data are shown as means±SD. **, p<0.01; n.s., not significant. […]
Cells were stained with antibodies as indicated: anti-human IL-25-PE (R&D Systems), mouse IgG1 isotype control-PE (R&D Systems), anti-human CD3-PE/Cy5 (BioLegend), anti-human CD4-PE (BioLegend), anti-human IL-17A-PE (eBioscience), anti-human IFN-γ-FITC (BioLegend), anti-human IL-22-PE (eBioscience), anti-human FOXP3-Alexa Fluor 488 (BD Pharmingen), anti-human CD274 […]-PE (eBioscience), mouse IgG1 isotype control-PE (eBioscience), anti-human IL-25R-PE (R&D Systems), and mouse IgG2b isotype control-PE (R&D Systems), anti-mouse CD4-APC (eBioscience), anti-mouse CD3e-PE/Cy5 (eBioscience), and anti-mouse/rat IL-17A-PE (eBioscience). Data was collected on BD FACSCalibur™ (BD Biosciences) instruments and analyzed with Cell Quest Pro software (BD Biosciences).

Assay [4] relates to myeloid-derived suppressor cells (MDSCs) in peripheral blood leukocytes. As to the kind of experiment: Expansion of CD14-CD11b+CD33+ MDSCs from human PBLs by IL-25. It counts as cell-based. The settings on record: allogeneic PBL (2 donors), various doses of IL-25. The protocol:
FIG. 11. IL-25 expands […] myeloid-derived suppressor cells (MDSCs) in peripheral blood leukocytes (PBLs). Expansion of CD14^−CD11b^+CD33^+ cells from human PBLs by recombinant human IL-25. Allogeneic PBL (2 donors) were cultured alone or with addition of various doses of IL-25 as indicated. PBL were first gated on forward scatter (FSC)/side scatter (SSC) (R1) then analyzed for CD14^− and CD11b^+ (R2), and further analyzed for CD33^+ (R3, cell percentages denoted).
To further confirm that IL-25 can induce expansion of MDSCs from peripheral blood, Allogeneic PBL (2 donors) were cultured alone or with addition of various doses of IL-25 as indicated (FIG. 11). The treated cells were first gated on forward scatter (FSC)/side scatter (SSC) (R1) then analyzed for CD14^− and CD11b^+ (R2), and further analyzed for CD33^+ (R3, cell percentages denoted).

As for `C[C@H](NC(=O)/C(C#N)=C/c1cccc(Br)n1)c1ccccc1` [WP1066, reference compound], the “IL-25-mediated induction of PD-L1 in human primary monocytes” value in assay [1] is “substantially abolished”. In addition, in assay [2] (inhibitor for 6 hours (WP1066 2.5 μM; SP600125 25 μM)), the “PD-L1 expression in hMSCs” value was “strongly reduced”.
In the case of `COc1cccc(-c2cc(=O)c3ccccc3o2)c1N` [PD98059], in assay [1], the “IL-25-mediated induction of PD-L1 in human primary monocytes” value is reported as “minimal effect”.

B1: rhIL-25: Human recombinant IL-25 (PeproTech); IL-25 also known as IL17E (protein, UniProt Q9H293 33-177, looked up)
Interleukin-25: YSHWPSCCPSKGQDTSEELLRWSTVPVPPLEPARPNRHPESCRASEDGPLNSRAISPWRYELDRDLNRLPQDLYHARCLCPHCVSLQTGSHMDPRGNSELLYHNQTVFYRRPCHGEKGTHKGYCLERRLYRVSLACVCVRPRVMG
On to B1, for which the “suppression of Th17 responses (IL-17A in CD4 T cells)” value in assay [3] was “failed to suppress Th17 responses to a significant extent”. For the same molecule, in assay [1] (human PBLs treated with rhIL-25, indicated doses, 18 hours, dose-dependent), the “PD-L1 expression in monocytes” value is “dramatically and significantly increased”. Also, the “surface expression of PD-L1 on hMSCs” value in assay [2] (exogenous rhIL-25, indicated doses, 18 hours) was “further upregulate surface expression of PD-L1 on hMSCs but not to a significant extent”. For the same molecule, in assay [4], the “expansion of MDSCs in PBLs” value is given as “expands”.
